Test results reported in patent US20090258344.

B1: bacterially expressed Histidine tag fusion of KIAA0861 DH-PH domain protein (protein)
chain: PRRRIIRDLLETEEIYIKEIKSIIDGYITPMDFIWLKHLIPDVLQNNKDFLFGNIRELYEFHNRTFLKELEKCAENPELLAHCFLKRKEDLQIYFKYHKNLPRARAIWQECQDCAYFGVCQRQLDHNLPLFKYLKGPSQRLIKYQMLLKGLLDFESPEDMEIDPGELGGSAKDGPKRTKDSAFSTELQQALAVIEDLIKSCELAVDLAAVTECPDDIGKLGKLLLHGPFSVWTIHKDRYKMKDLIRFKPSQRQIYLFERGIVFCKIRMEPGDQGLSPHYSFKKTMKLMTLSIRQLGRGSHRKFEIASRNGLEKYILQAASKEIRDCWFSEISKLLM
B2: bacterially expressed Histidine tag fusion of Dbs DH-PH domain protein (protein)
chain: LRRHVMSELLDTERAYVEELLCVLEGYAAEMDNPLMAHLLSTGLHNKKDVLFGNMEEIYHFHNRIFLRELENYTDCPELVGRCFLERMEDFQIYEKYCQNKPRSESLWRQCSDCPFFQECQRKLDHKLSLDSYLLKPVQRITKYQLLLKEMLKYSRNCEGAEDLQEALSSILGILKAVNDSMHLIAITGYDGNLGDLGKLLMQGSFSVWTDHKRGHTKVKELARFKPMQRHLFLHEKAVLFCKKREENGEGYEKAPSYSYKQSLNMAAVGITENVKGDAKKFEIWYNAREEVYIVQAPTPEIKAAWVNEIRKVLT

Legend:
[1] = target: GST-tag fusion of the GTPase Cdc42
[2] = target: GST-tag fusion of the GTPase RhoA

Protein | N-methylanthraniloyl(mant)-GTP incorporation into Rho GTPase, relative fluorescence (guanine nucleotide exchange assay) [1] | N-methylanthraniloyl(mant)-GTP incorporation into Rho GTPase, relative fluorescence (guanine nucleotide exchange assay) [2]
B1 | KIAA0861 and DBS DH-PH domain proteins are active in exchanging guanine nucleotide from the GST-tag fusions of the GTPases, RhoA and Cdc42 | KIAA0861 and DBS DH-PH domain proteins are active in exchanging guanine nucleotide from the GST-tag fusions of the GTPases, RhoA and Cdc42
B2 | KIAA0861 and DBS DH-PH domain proteins are active in exchanging guanine nucleotide from the GST-tag fusions of the GTPases, RhoA and Cdc42 | KIAA0861 and DBS DH-PH domain proteins are active in exchanging guanine nucleotide from the GST-tag fusions of the GTPases, RhoA and Cdc42
